Drawing on paper doi:10.1101/2020.01.29.926220v1, this text covers kcat and Km for one substance.

Common to all, as to assay: spectrophotometric hydrolysis, initial rates, Hanes-Woolf
Holding throughout (assay type): biochemical, Yersinia mollaretii
Holding throughout (settings): 50 mM MES pH 6.0, 30°C

In data set [1] the test system is C[C@@H](O)[C@H]1C(=O)N2C(C(=O)O)=C(S[C@@H]3CN[C@H](C(=O)N(C)C)C3)[C@H](C)[C@H]12.
The test system of data set [2] is C[C@@H](O)[C@H]1C(=O)N2C(C(=O)O)=C(S[C@@H]3CN[C@H](CNS(N)(=O)=O)C3)[C@H](C)[C@H]12.
In data set [3] the test system is C[C@@H](O)[C@H]1C(=O)N2C(C(=O)[O-])=C(SC3Cn4cnc[n+]4C3)[C@H](C)[C@H]12.
Data set [4] has as its system C[C@@H](O)[C@H]1C(=O)N2C(C(=O)O)=C(S[C@@H]3CN[C@H](C(=O)Nc4cccc(C(=O)O)c4)C3)[C@H](C)[C@H]12.
Data set [5] relates to C[C@@H](O)[C@H]1C(=O)N2C(C(=O)O)=C(SCCN=CN)C[C@H]12.

One may read the kcat as the number of substrate molecules converted per active site and unit of time at saturation. Usually Km stands for the concentration of substrate that gives half-maximal velocity. Turning to YEM-1 (Yersinia mollaretii ATCC 43969), the kcat in data set [1] is more than 400 s⁻¹; in data set [2] it was more than 100 s⁻¹; in data set [3] it was more than 16 s⁻¹; in data set [4], more than 400 s⁻¹; in data set [5], 480 s⁻¹. Besides, the Km in data set [5] was found to be 160 µM.
